# Measured values as given in article PMC3805550.
# Biological target: F-actin from chicken pectoral (skeletal) muscle (chicken) (UniProt P68139)
# Experiment: co-sedimentation; 5 uM F-actin with 0.1-6 uM AS-Cdc8p, 20 mM MOPS pH 7.0, 150 mM NaCl, 2 mM MgCl2, 20 C, 60,000 rpm 30 min; pellets and supernatants on SDS-PAGE, densitometry; Hill equation fit, apparent constant (Kapp)
substance,measurement,value
"AS-Cdc8p wildtype (Ala-Ser-Cdc8p, S. pombe tropomyosin with AlaSer at the N terminus) (natural protein)",Ka,6.3e+06 M⁻¹
